The target in assay [1] is human FcRn (human) (UniProt P55899). The assay can be described thus: SPR; Biacore T200; FcRn immobilised on CM5 sensor chip, IVIG (from 500 nM) or rhIgG1 Fc (from 250 nM) injected, two-fold serial dilution; regeneration 100 mM Tris-HCl; multicycle kinetics model (methods), steady state equilibrium model (legend of Fig. 4).
Assay [2] deals with human FcγRIIIA F176V (human) (UniProt P08637). The assay is described as follows: SPR; Biacore T200; FcγRs immobilised on CM5 sensor chip, IVIG or rhIgG1 Fc injected; three-fold serial dilution (FcγRIA from 300 nM; FcγRIIA from 20 μM; FcγRIIIA from 3 μM IVIG and 300 nM hIgG1 Fc); regeneration 10 mM glycine; single cycle kinetics model. (Surface plasmon resonance follows binding to a sensor surface in real time, without labels.)

The target in assay [3] is human FcγRIA (human) (UniProt P12314). The description is as above.

pKd: −log10 of the molar value.

Sequence of UniProt P12314 (P12314 16-292): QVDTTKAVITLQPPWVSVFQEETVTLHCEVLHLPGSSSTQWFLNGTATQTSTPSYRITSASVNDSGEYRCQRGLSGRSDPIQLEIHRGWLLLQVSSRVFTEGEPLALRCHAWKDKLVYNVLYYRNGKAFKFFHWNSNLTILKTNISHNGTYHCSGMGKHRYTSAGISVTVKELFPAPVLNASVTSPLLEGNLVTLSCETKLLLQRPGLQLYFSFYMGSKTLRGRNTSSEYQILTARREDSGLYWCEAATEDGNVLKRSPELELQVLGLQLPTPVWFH
Sequence of UniProt P55899 (P55899 24-297, chain 1 of 2): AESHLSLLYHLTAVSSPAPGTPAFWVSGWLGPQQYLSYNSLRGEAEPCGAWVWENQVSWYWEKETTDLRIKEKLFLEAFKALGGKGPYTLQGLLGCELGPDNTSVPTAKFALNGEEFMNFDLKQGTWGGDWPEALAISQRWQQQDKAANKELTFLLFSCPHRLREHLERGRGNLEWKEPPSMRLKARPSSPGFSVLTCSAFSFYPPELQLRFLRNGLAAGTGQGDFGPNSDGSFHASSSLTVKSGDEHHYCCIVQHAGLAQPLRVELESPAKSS
Sequence of UniProt P55899 (P61769 21-119, chain 2 of 2, further chain): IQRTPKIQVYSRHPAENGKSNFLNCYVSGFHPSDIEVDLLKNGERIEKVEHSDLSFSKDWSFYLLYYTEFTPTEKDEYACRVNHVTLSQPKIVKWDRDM
Sequence of UniProt P08637 (P08637 17-208 F176V): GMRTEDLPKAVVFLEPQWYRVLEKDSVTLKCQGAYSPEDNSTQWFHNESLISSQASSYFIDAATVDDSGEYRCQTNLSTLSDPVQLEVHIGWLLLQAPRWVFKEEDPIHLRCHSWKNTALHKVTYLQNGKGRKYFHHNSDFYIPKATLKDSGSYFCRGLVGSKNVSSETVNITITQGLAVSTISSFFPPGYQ

As a reminder, the pKd is the Kd on a negative log10 scale, so that one unit is a factor of ten. A low value points to a large Kd. For the substance “recombinant human IgG1 Fc derived from ALB::hIgG1 Fc genome-edited chickens (domain or fragment)”, the pKd is 8.04 in assay [1], 8.00 in assay [2] and 8.89 in assay [3].
